Test results taken from PMC11655841 (Cell Death & Disease, 2024).

B1: p73 SAM domain (aa 489–550 of TAp73α) (domain or fragment)
chain: ADPSLVSFLTGLGCPNCIEYFTSQGLQSIYHLQNLTIEDLGALKIPEQYRMTIWRGLQDLKQ
B2: p73 DBD-OD-SAM (amino acids 112–550 of TAp73α) (domain or fragment)
chain: APVIPSNTDYPGPHHFEVTFQQSSTAKSATWTYSPLLKKLYCQIAKTCPIQIKVSTPPPPGTAIRAMPVYKKAEHVTDVVKRCPNHELGRDFNEGQSAPASHLIRVEGNNLSQYVDDPVTGRQSVVVPYEPPQVGTEFTTILYNFMCNSSCVGGMNRRPILIIITLEMRDGQVLGRRSFEGRICACPGRDRKADEDHYREQQALNESSAKNGAASKRAFKQSPPAVPALGAGVKKRRHGDEDTYYLQVRGRENFEILMKLKESLELMELVPQPLVDSYRQQQQLLQRPSHLQPPSYGPVLSPMNKVHGGMNKLPSVNQLVGQPPPHSSAATPNLGPVGPGMLNNHGHAVPANGEMSSSHSAQSMVSGSHCTPPPPYHADPSLVSFLTGLGCPNCIEYFTSQGLQSIYHLQNLTIEDLGALKIPEQYRMTIWRGLQDLKQ

Assays:
DARPin 1800 [1] = experiment: ITC; target proteins (p53 family domains) titrated to constant concentrations of DARPin; 25 °C; 50 mM HEPES pH 7.4, 150 mM NaCl, 0.5 mM TCEP; MicroCal VP-ITC
[2] = molecular target: the molecule itself; experiment: crystal structure; complex of DARPin and p73 domain mixed from purified proteins, isolated by SEC; sitting drop at 20 °C, 30% PEG2000MME, 0.15 M potassium bromide
DARPin 1800 [3] = experiment: as above; settings: scale: DARPin 1800 per p73 OD
DARPin B9 [4] = experiment: ITC; target proteins (p53 family domains) titrated to constant concentrations of DARPin; 25 °C; 50 mM HEPES pH 7.4, 150 mM NaCl, 0.5 mM TCEP; MicroCal VP-ITC
DARPin B9 [5] = experiment: crystal structure; complex of DARPin and p73 domain mixed from purified proteins, isolated by SEC; sitting drop at 20 °C, 30% PEG2000MME, 0.15 M potassium bromide
[6] = molecular target: DARPin B9 LZ (DARPin B9 dimerized via a leucine zipper) (yeast) (UniProt P03069); experiment: ITC; target proteins (p53 family domains) titrated to constant concentrations of DARPin; 25 °C; 50 mM HEPES pH 7.4, 150 mM NaCl, 0.5 mM TCEP; MicroCal VP-ITC
[7] = molecular target: DARPin B9-B9 (DARPin B9 fused to another DARPin B9 via a (G4S)4 linker); experiment: as above
[8] = molecular target: DARPin 1800–1800 (DARPin 1800 fused to another DARPin 1800 via a (G4S)4 linker); experiment: as above
[9] = molecular target: DARPin 1800 LZ (DARPin 1800 dimerized via a leucine zipper) (yeast) (UniProt P03069); experiment: as above

| Binder | Kd (DARPin 1800 [1]) | binding result [2] | stoichiometry N (DARPin 1800 [3]) | Kd (DARPin B9 [4]) | stoichiometry N (p73 SAM domain per DARPin B9) (DARPin B9 [5]) | Kd [6] | Kd [7] | Kd [8] | Kd [9] |
| --- | --- | --- | --- | --- | --- | --- | --- | --- | --- |
| DEDTYYLQVRGRENFEILMKLKESLELMELVPQPLVDSYRQQQQLLQR (domain or fragment, UniProt O15350 351-398, looked up) [p73 oligomerization domain (aa 351–398 of TAp73α)] | 94.5 nM | binds | 2 |  |  |  |  |  |  |
| B1 |  |  |  | 58.8 nM | 1 |  |  |  |  |
| B2 | 67 nM |  |  | 309 nM |  | 64 nM | 46 nM | 13 nM | 4 nM |
